Laboratory results reported in article PMC5408610, “Identification and characterization of a 20β-HSDH from the anaerobic gut bacterium Butyricicoccus desmolans ATCC 43058” (Journal of Lipid Research, 2017).

What was measured:
[1] = target: 20β-hydroxysteroid dehydrogenase (20β-HSDH) from Butyricicoccus desmolans ATCC 43058 (Butyricicoccus desmolans ATCC 43058); assay: SEC; Superdex 200 analytical column, 4°C; 50 mM Tris-Cl, 300 mM NaCl, 10% glycerol, 10 mM 2-mercaptoethanol, 0.1% Triton X-100, pH 7.5; native mass from retention volume against standard proteins, divided by the subunit mass from SDS-PAGE
purified protein = substrate: C[C@]12CCC(=O)C=C1CC[C@@H]1[C@@H]2[C@@H](O)C[C@@]2(C)[C@H]1CC[C@]2(O)C(=O)CO; assay: purified protein; type: biochemical, Agathobaculum desmolans; settings: reductive direction, saturating NADH, 0.05 μM enzyme, standard assay 50 mM phosphate pH 7.5, temperature not stated for Km

Row | stoichiometry N [1] | Molecule | Km (purified protein) [µM] | Vmax (purified protein) [µmol/min]
1 | 3.96 | 20β-hydroxysteroid dehydrogenase (20β-HSDH) from Butyricicoccus desmolans ATCC 43058 (enzyme) | – | –
2 | – | 20β-HSDH (r20β-HSDH, desE) of B. desmolans ATCC 43058 (Agathobaculum desmolans ATCC 43058) (protein, N-terminal Strep-tag from pET-51b(+), E. coli BL21-CodonPlus(DE3) RIPL) MAEEFYAVYPKDAWKDPSYRLMDKFSLKGKKGFVTGGGGGIGRNTAAAWAEAGADVALVDIPASKDRLEPLAKEMSERYGVKVVPLYCDVSDEEQVNALKDDLIRELGTVDFAHINAGVCLMGDDVDVPYSTWKKVIDIDLNGAFMTAQVAQQIMREHNHGGSIIMTSSLSGYNANFIGGGPSPVCAYGTAKAGISQLARYMGAGLAPYGIRVNTISPGYIWSGIHEGVMDKAGHDMCLEVVPIKRFGRTDELQGVMLFLASEASSYITGINIPVDGGYSIF | 0.80 ± 0.06 | 30.4
